Laboratory results as given in publication doi:10.1101/2025.06.20.660733.

How the values were obtained:
[1] = target: neuraminidase of A/Moscow/10/1999 (H3N2), recombinant head domain (influenza A virus A/Moscow/10/1999 (H3N2))
[2] = target: neuraminidase of A/cattle/Texas/56283/2024 (H5N1), recombinant head domain (influenza A virus A/cattle/Texas/56283/2024 (H5N1))

B1: HB420 (human IgG1) (antibody, V domains shown)
VH: EVQLVESGAEVKKPGSSVKVSCMASGGSFGSYGFSWVRQAPGQGLEWMGGIIPLFDTPNYAQKFQGRVTITADASTSTVYMELSSLRSEDTAVYYCARDSLPYGDQNYYYGMHVWGQGTTVTVSS
VL: QSALTQPASLSGSPGQSITISCSGSSSDIGDYNYVSWYQQHPGKAPKLIIYDVTNRPSGVSDRLSGSKSGTTASLTISGLQAEDEADYYCSSYGGNYNLVFGGGTKLTVL
For B1, the NA inhibition of recombinant NA by enzyme-linked lectin assay (ELLA), IC50 [1] was 0.19 µg/mL and the NA inhibition of recombinant NA by enzyme-linked lectin assay (ELLA), IC50 [2] was 50 µg/mL.
